Assay results as given in FireProtDB (doi:10.1021/bi060907v).

Details: Thermococcus kodakarensis (strain ATCC BAA-918 / JCM 12380 / KOD1), pH 9, reversible: Yes, whole UniProt chain shown
[1] = 50 °C, GdnHCl, CD, Tris-HCl 20 mM

B1: Ribonuclease HII wild type, O74035 (protein)
chain: MKIAGIDEAGRGPVIGPMVIAAVVVDENSLPKLEELKVRDSKKLTPKRREKLFNEILGVLDDYVILELPPDVIGSREGTLNEFEVENFAKALNSLKVKPDVIYADAADVDEERFARELGERLNFEAEVVAKHKADDIFPVVSAASILAKVTRDRAVEKLKEEYGEIGSGYPSDPRTRAFLENYYREHGEFPPIVRKGWKTLKKIAEKVESEKKAEERQATLDRYFRKV
[1]
  denaturant m value: 5.64 kcal/mol/M
  denaturant midpoint (higher = more stable): 1.85 M
Thermal, DSC, Gly-NaOH 20 mM
  Tm: 85.2 °C
  unfolding enthalpy (calorimetric): 573 kJ/mol
  unfolding enthalpy (van 't Hoff): 682 kJ/mol
